Experimental data taken from patent US20160348147A1, “SYSTEMS AND DEVICES FOR PROTEASE DETECTION BASED ON ENGINEERED POLYMERS AND BIOPOLYMERS AND METHODS OF USE” (DUKE UNIVERSITY, priority 2014, published 2016).

Columns and labels:
MMP-1 [1] = target: T1, MMP-1 (Homo sapiens, UniProt P03956); assay: Mass spectrometry of ELP-substrate fusion before and after incubation with MMP-1; type: biochemical; conditions: 100 μM polypeptide, 100 ng/mL MMP-1, 2 h at 25° C., proteolysis buffer
T1 construct: Human MMP-1 catalytic domain (recombinant, produced in E. coli, 19.9 kDa, >95% purity); purchased Enzo Life Sciences (Farmingdale, N.Y.); host or cells: E. coli
T1 sequence (P03956 100-269 limits assumed): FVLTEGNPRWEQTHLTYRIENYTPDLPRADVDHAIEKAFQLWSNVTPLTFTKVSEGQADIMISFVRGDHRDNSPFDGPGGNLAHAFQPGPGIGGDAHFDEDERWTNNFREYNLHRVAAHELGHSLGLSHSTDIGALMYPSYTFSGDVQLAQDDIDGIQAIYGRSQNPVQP
Protocol: We confirmed the purity and molecular weight of the purified peptides by electrophoresis (10-20% gradient […] SDS-PAGE, Thermo Scientific, CA) and by matrix-assisted laser desorption/ionization mass spectrometry. Mass spectrometry samples were prepared by mixing the enzymatic reaction product with sinapinic acid in 1:10 ratio. 1 μL of the sample/matrix mixture was then loaded on the grid and the measurements were performed on a Voyager-DE-Pro instrument (Applied Biosystems, Germany). To determine the concentration of the ELP-substrate fusion solutions we used a calculated extinction coefficient (Gill, S. C. & Vonhippel, P. H. Analytical Biochemistry 1989, 182, 319-326) or lyophilized the polypeptide solution. We studied the thermal behavior of the ELP-substrate fusion constructs in both proteolysis buffer (see below) and diluted human serum in the presence and absence of MMP-1 using optical turbidimetry on a temperature-programmed UV-vis spectrometer (Cary 300, Agilent Technologies). To characterize the size of the micelles and aggregates, we used single angle dynamic light scattering (DLS; DynaPro, Protein Solution).
We used mass spectrometry to examine the cleavage of the MMP-1 substrate peptide in the ELP-substrate fusion by measuring the molecular weight of the polypeptides prior to, and after incubation with MMP-1. […]

MMP-1 [2] = target: T1, MMP-1; assay: Kinetic study of MMP-1 cleavage (SDS-PAGE, Lineweaver-Burke plot); type: biochemical; conditions: substrate 25, 50, 100, 200 μM, enzyme 20 ng/mL, buffer, 40° C.
Protocol: We used mass spectrometry to examine the cleavage of the MMP-1 substrate peptide in the ELP-substrate fusion by measuring the molecular weight of the polypeptides prior to, and after incubation with MMP-1. We incubated 0.5 mL of 100 μM polypeptide in proteolysis buffer with 100 ng/mL of MMP-1 for 2 h at 25° C. […] For example, an enzymatic reaction can be written in general form as:
In which V0 is the initial rate of the enzymatic reaction at a given substrate concentration. Using equation Eq. 4, we can calculate Vmax by plotting 1/V0 versus 1/[S] at different substrate concentrations and a constant enzyme concentration and then calculate kcat by implementing equation Eq. 3.
We performed a series of kinetic studies in which the concentration of the substrate in the buffer solution was chosen to be 25, 50, 100, and 200 μM. We then added 20 ng/mL of enzyme to each of the solutions and kept all the solutions at a constant temperature (40′C). […] We quantified these changes by image analysis (ImageJ software) and used them to quantify the amount of product for each substrate concentration at each sampling time. We then calculated the initial rate of the reaction (V0) by using the concentration of the converted substrate and the time of reaction.
We then used equation Eq. 4 and plotted 1/[S] versus 1/[V0] […] From Vmax and equation Eq. 3, we calculated kcat to be equal to 8.0±1.9 s^−1. […]

Substance: M(GVGVP)60GDGQVPMSMRGGDDEGQQDDEEGY (MGVGVPGDGQVPMSMRGGDDEGQQDDEEGY) [ELP-substrate fusion, recombinant polypeptide: ELP fused to MMP-1 substrate and charged hydrophilic peptide]
- cleavage of the MMP-1 substrate peptide (mass spectrometry) (MMP-1 [1]): most of the 1.8 kDa MMP-sensitive peptide is cleaved off
- kcat (MMP-1 [2]): 8.0 ± 1.9 s⁻¹
